Assay results as given in a protein production outcome set (Wang et al. 2014).

Assay: label from the status in PepcDB records

Sequence	protein production
MVSSVLPNPTSAECWAALLHDPMTLDMDAVLSDFVRSTGAEPGLARDLLEGKNWDLTAALSDYEQLRQVHTANLPHVFNEGRGPKQPEREPQPGHKVERPCLQRQDDIAQEKRLSRGISHASSAIVSLARSHVASECNNEQFPLEMPIYTFQLPDLSVYSEDFRSFIERDLIEQATMVALEQAGRLNWWSTVCTSCKRLLPLATTGDGNCLLHAASLGMWGFHDRDLVLRKALYTMMRTGAEREALKRRWRWQQTQQNKEEEWEREWTELLKLASSEPRTHFSKNGGTGGGVDNSEDPVYESLEEFHVFVLAHILRRPIVVVADTMLRDSGGEAFAPIPFGGIYLPLEVPPNRCHCSPLVLAYDQAHFSALVSMEQRDQQREQAVIPLTDSEHKLLPLHFAVDPGKDWEWGKDDNDNARLAHLILSLEAKLNLLHSYMNVTWIRIPSETRAPLAQPESPTASAGEDVQSLADSLDSDRDSVCSNSNSNNGKNGKDKEKEKQRKEKDKTRADSVANKLGSFSKTLGIKLKKNMGGLGGLVHGKMGRANSANGKNGDSAERGKEKKAKSRKGSKEESGASASTSPSEKTTPSPTDKAAGASPAEKGGGPRGDAWKYSTDVKLSLNILRAAMQGERKFIFAGLLLTSHRHQFHEEMIGYYLTSAQERFSAEQEQRRRDAATAAAAAAAAAAATAKRPPRRPETEGVPVPERASPGPPTQLVLKLKERPSPGPAAGRAARAAAGGTASPGGGARRASASGPVPGRSPPAPARQSVIHVQASGARDEACAPAVGALRPCATYPQQNRSLSSQSYSPARAAALRTVNTVESLARAVPGALPGAAGTAGAAEHKSQTYTNGFGALRDGLEFADADAPTARSNGECGRGGPGPVQRRCQRENCAFYGRAETEHYCSYCYREELRRRREARGARP	failed
MVTAAQPRSPSPSPSSTAAAGQVTRRVPAVRHLGPNWYACVMGTAIVGTAGAALPGHVAGLRAACTAVWALSLVLLVVLLTARSLHWLHHRDQARAHLLDPSAAPFYGCLSMALLAVGGGALALGRDWIGTPAAVALDTVLFTAGTVIGLAAAVAVPYLMAVRHRVEPGQASPVWLLPLVAPMVSAAVGPLLVPHLPAGQPRETLLLACVAMFGMSLFATLVTLPVVFGRLLTGGPLPLALTPSLFLVLGPLGQSTTAVGKFADVAPGVVPGPYAEGFAVFAVLYGVPVTGFALMWLALAAAHVVRARRAGMRFSMTWWSFTFPVGTCVTGAEALARETGLVVYDGLTVALYALLVAAWAVAAVHTARGLFSGVLLAGPRPAPGAPRPATARTT	failed
MVTAGKTLGKRMSTMRHRSCFSLFAGLALVFCLAVGTAAAGPVQVDIYGPGQGSLNLAMAAPLGPTPGTPVSGMGVKLNGFINENLSFLPFLRLVDQRAILGGTVMQGYKSPDIDLKRFQLAGADLVVTAGWPQGDASGSFVELRVYEALSGKLVFGKAYSHVEDGLLPNVADRFCSDLMKALTGRGEFFKSTLAFVKHDGKNKRDVWLVKPVGRDLRKITNLPGEALSPSWSPDGRFVVFSHFDDRSHALGVWDRLTRQVQRIRFPGNTVIGPCFLPDNKVAVSLSSGRNPDIFLLNHLFKKERELEANPSINVSPSFDATGTKMAFTSSRMGGPQVFMKDMTTGQVTRISKTGSYNTEPSISPDGTLVAFTKMTDTGHRIFVYDMVTQSERQVSFGPGRDEQPSFAPDSYFLAFTSNRNGAQQIFLVTRHGGDPKRVPTGPGDASFARWGMIPE	failed
MVTFVLAITAISCLIWCFLLVGWGNFWRCDQVLNFDRPSTLQAYPSVAAIIPARDEASVLGQSLPSLLEQHYPGPLKIILVDDQSSDGTGAVAQRIASGLGHGDRLEVVSGQPLPPGWSGKLWAVEQGWQTVQLKKKGSDSWPEYIFLTDADIAHGPQTITALVEKAQRDNLALVSLMVLLRCESVWEKLLIPAFIFFFQKLYPFPLVNNPQRQTAAAAGGCILMQRSALQTIGGIGALKEALIDDCTLAQKVKAQKLPIWLGLTRANWSLRPYDSLETIWQMVSRTAYTQLNYNPLLLLGTLLGMALVYLTAPIALILAIIWGNAPLALLGAFTWMLMAIAYGPTLKFYGRSWLWGLTLPLIALLYSLMTLDSAWQHWRGQGGGWKGRIYPQGS	failed
MVTIANDFLTVKISRHGAELTSIKDNLTGRERLWQADPAVWGRHAPVLFPIVGALADNQYHYAGKTYHMGQHGFARDRDFTVLSATPFKASFVLKDDDKTRAMYPFAFRLIITFALENNNLHVTYHVDNPDKSEPLFFSIGGHPGFKVPMTPDTQFSDYYLNFKPRKSLVQIPLVAGEGIDYTHRTLAATDANLALTHETFDHDALIFALLGKTTFNLVSDKTKHGVSVTMTDTPYLGVWSPYPTTGDFVCIEPWWGIADTIGSTGDLTRKLGINRLEPGTAFEKGYMISIFLEHHHHHH	failed
MVTLEYNANSKLITASDAVVALSTETNIDQINVLTTSLIGETNPNFTPQPNEALSKMIKGLFESGMKNLQQKKLNEALKNVSLAIEMAQRKRAPWEAFAIQLPELHFMLRSKIDLCLILGKHLEALQDLDFLLGTGLIQPDVFVRKADCLLKLRQWEEARATCERGLALAPEDMKLRALLIETARNLAEYNGE	failed
MVTNMVKLRNLRRLYCSSRLLRTIQNGRISSVSSISLSKKYTTKSAKEGEENVERKHEEEKKDTLKSSSVPTSRISRLFHYGSLAAGVGMNAAAKGISEVAKGNSPTWKSLILSDSNIDRITNKFSKMRGVALKIGQLLSFQDEKVLPKELYEILSRVQNSANHMPQRQLEKVMAKELGANWKTKFSKFDKIPMAAASIGQVHAAELPSGQRVVVKIQYPGVKESIDSDLNSLLMLLTASSLLPKGLFLDKTIANARTELKWECDYNREARALQKFEALLKDDPAFEVPHVFPEYTTDNIITATRMEGTEIMKLPKASQETKNFISENIMRLCLEEIATFKYMQTDPNWANFLYNGRTKKIELLDFGASRPFAEDFILKYRKLLTYATLRDRKGAYEMSVQLGYLTGLESQSMKDAHVDSVLTLGEPFRGDVDKSFDFKDQTVSDRIRGNIGLMLNERLCPPPEETYSLHRKFSGIFLLCARMGASVHCAKLFKEIFAYKV	failed
MVTPAQVARRAALWMLTSTVAFGLMAITIRLASSTIATAEIAFFRNAFGLLALLPLILRPGKPLPRTRQLPQYFARTLIGLASMLCGFWAIGHLPLSQAISLSYSTPLFVTVLAVVWLHEQVRLRRWLAVAAGFIGVLVILRPGSSTFTPGLLIALLAAVISAIVAIQIKQLSRSDDSDTVVFYTYVFWVPMSLIPALFQWTWPQGIGWVWLVATGIFGTAGQLFWTRALKLGEVSALQPISFMQLPLVALLGWWLFGEAIERHTVIGAAIIIGANVYIAHRETVLARRAATHAPVEGAKPGE	failed
MVTQNKLKKLVLGLSLIAASSAAMATTDTAKPNILAIWGDDIGPFNISAYNRGIMGYKTPNIDRIANEGIIFTDSYGDQSCTAGRAGFITGQHPMRTGLTKVGLPGAKEGLNKKDPTIAELLKPHGYMTGQFGKNHLGDQDEHLPTNHGFDEFFGNLYHLNAEDEPEHPDYPKDPAFKKRFGPRGAIHSFADGKITDTGPVTKKRMETIDEEFLGAALKFIDKAHAAKKPFFVWFNSTRMHVWTRLKPESDGVTGQGLYADGMVEHDGHVGQLLDKIDKLGIAENTIIMYTTDNGAELALWPDGGYTPFRGEKNTNWEGGYRVPMMVKWAGKIKPNQVSNEMISLIDWMPTILAVAGDTNIKSKLKKGTNVGGTKFKVHLDGYNFLPHFLDTTKEGPRKEFIYSSDTGDIVGLRYEDYKFVFKEQRAHGLEVWQNPWTTLRAPKIFNLRMDPYERMDHESEGYGQWWAEHMFLMAPAMMKVAQFKATFKEFPQRQKPGSFVP	failed
